The values below come from patent publication USRE47150 (Bayer, dated 2018).

In general, Kd refers to the free concentration of one partner at which half of the binding sites on the other are occupied at equilibrium, for simple one-to-one binding. Low readings indicate a tighter complex, high ones a looser complex. Usually koff stands for the first-order rate constant of dissociation. A word on the kon: it is the rate constant with which the complex forms. A lower kon goes with slow association.

Like-named read-outs stand apart in the source and are kept apart here.

Assay [1] addresses T1, mouse tissue factor pathway inhibitor (TFPI) (mouse, UniProt O54819 29-289, limits assumed).
T1 construct: bought; also called mTFPI; murine TFPI
T1 sequence (looked up): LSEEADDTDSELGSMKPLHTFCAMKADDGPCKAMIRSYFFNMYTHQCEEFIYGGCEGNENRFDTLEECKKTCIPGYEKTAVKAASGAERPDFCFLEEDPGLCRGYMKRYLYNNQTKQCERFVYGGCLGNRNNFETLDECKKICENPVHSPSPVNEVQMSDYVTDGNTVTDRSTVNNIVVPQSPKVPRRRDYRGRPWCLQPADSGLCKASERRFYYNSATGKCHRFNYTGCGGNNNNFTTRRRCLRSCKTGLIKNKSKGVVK
In words: SPR, TFPI immobilized. Background: Surface plasmon resonance follows binding to a sensor surface in real time, without labels.

The target of assay [2] is T2, human tissue factor pathway inhibitor (TFPI) (human, UniProt P10646 29-304, limits assumed).
T2 construct: bought; also called hTFPI; human TFPI
T2 sequence (looked up): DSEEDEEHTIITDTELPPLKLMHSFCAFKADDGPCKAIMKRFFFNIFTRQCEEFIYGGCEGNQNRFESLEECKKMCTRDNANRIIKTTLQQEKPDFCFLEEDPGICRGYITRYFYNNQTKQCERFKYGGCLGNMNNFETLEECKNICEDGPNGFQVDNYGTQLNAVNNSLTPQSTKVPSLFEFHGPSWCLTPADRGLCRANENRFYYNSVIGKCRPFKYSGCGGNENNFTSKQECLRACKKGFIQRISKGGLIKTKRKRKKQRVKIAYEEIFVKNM
The assay is described as follows: competitive ELISA. (In general: An ELISA detects its analyte on a solid surface through an enzyme-linked reagent.)

In assay [3] the target is T1, mouse tissue factor pathway inhibitor …. The assay is described as follows: competitive ELISA.
In assay [4] the target is T2, human tissue factor pathway inhibitor …. The assay is described as follows: SPR, TFPI immobilized.
In assay [5] the target is recombinant TFPI of the FXa restoring assay (human, mouse or rat; not specified for Tables 9 and 10). In words: cell-based or functional assay.
Assay [6] concerns the target T2, human tissue factor pathway inhibitor …. The assay is described as follows: SPR, TFPI immobilized. This is another data set of the same source.
Assay [7] addresses T1, mouse tissue factor pathway inhibitor …. In words: SPR, TFPI immobilized. This is another data set of the same source.

B1: 2A8 HC_G33P (Fab, V domains shown)
VH: QVQLVESGGGLVQPGGSLRLSCAASGFTFRSYPMSWVRQAPGKGLEWVSSIRGSSSSTYYADSVKGRFTISRDNSKNTLYLQMNSLRAEDTAVYYCARKYRYWFDYWGQGTLVTVSS
VL: DIELTQPPSVSVAPGQTARISCSGDNLRNYYAHWYQQKPGQAPVVVIYYDNNRPSGIPERFSGSNSGNTATLTISGTQAEDEADYYCQSWDDGVPVFGGGTKLTVLG
notes: also called 2A8-1
For B1, in assay [1], the Improvement was found to be 2.21 fold, the Kd amounted to 1.59 nM, the dissociation rate constant (koff) came to 0.00145 s⁻¹ and the kon is 912000 M⁻¹ s⁻¹. In assay [2], this molecule had a variant/wild-type of 5.1 ratio. Further, the variant/wild-type in assay [3] stood at 2.9 ratio. In assay [4], this molecule showed an Improvement of 2.7 fold, a Kd of 0.827 nM, a koff of 0.00224 s⁻¹ and a kon of 2.71e+06 M⁻¹ s⁻¹.

B2: 2A8 HC_S31V (Fab, V domains shown)
VH: QVQLVESGGGLVQPGGSLRLSCAASGFTFRVYGMSWVRQAPGKGLEWVSSIRGSSSSTYYADSVKGRFTISRDNSKNTLYLQMNSLRAEDTAVYYCARKYRYWFDYWGQGTLVTVSS
VL: DIELTQPPSVSVAPGQTARISCSGDNLRNYYAHWYQQKPGQAPVVVIYYDNNRPSGIPERFSGSNSGNTATLTISGTQAEDEADYYCQSWDDGVPVFGGGTKLTVLG
notes: also called 2A8-3
B2: in assay [5], the “IC50, FXa restoring assay” value stood at 0.201 µg/mL and the “Improvement vs parental, FXa restoring assay” value (from here on “Improvement vs parental”) came out at 3.5 fold. In assay [1], this molecule registered an Improvement of 5.91 fold, a Kd of 0.595 nM, a koff of 0.00202 s⁻¹ and an on-rate constant (kon) of 3.39e+06 M⁻¹ s⁻¹. In assay [2], the variant/wild-type was determined as 9.7 ratio. Also, in assay [3], the variant/wild-type is 7.4 ratio. In assay [4], this molecule registered an Improvement of 6 fold, a Kd of 0.373 nM, a koff of 0.00143 s⁻¹ and a kon of 3.84e+06 M⁻¹ s⁻¹.

B3: 2A8 LC_N51V (Fab, V domains shown)
VH: QVQLVESGGGLVQPGGSLRLSCAASGFTFRSYGMSWVRQAPGKGLEWVSSIRGSSSSTYYADSVKGRFTISRDNSKNTLYLQMNSLRAEDTAVYYCARKYRYWFDYWGQGTLVTVSS
VL: DIELTQPPSVSVAPGQTARISCSGDNLRNYYAHWYQQKPGQAPVVVIYYDVNRPSGIPERFSGSNSGNTATLTISGTQAEDEADYYCQSWDDGVPVFGGGTKLTVLG
notes: also called 2A8-13
The molecule B3 registered a variant/wild-type in assay [2] of 4.4 ratio. The molecule further had a variant/wild-type in assay [3] of 2 ratio. In assay [4], the Improvement was 4.32 fold, the Kd is 0.518 nM, the koff was determined as 0.0022 s⁻¹ and the kon was found to be 4.26e+06 M⁻¹ s⁻¹.

B4: 2A8 HC_S31P (Fab, V domains shown)
VH: QVQLVESGGGLVQPGGSLRLSCAASGFTFRPYGMSWVRQAPGKGLEWVSSIRGSSSSTYYADSVKGRFTISRDNSKNTLYLQMNSLRAEDTAVYYCARKYRYWFDYWGQGTLVTVSS
VL: DIELTQPPSVSVAPGQTARISCSGDNLRNYYAHWYQQKPGQAPVVVIYYDNNRPSGIPERFSGSNSGNTATLTISGTQAEDEADYYCQSWDDGVPVFGGGTKLTVLG
notes: also called 2A8-2
Take B4: in assay [5], the “IC50, FXa restoring assay” value came to 0.33 µg/mL and the “Improvement vs parental” value was found to be 1.7 fold. In assay [1], this molecule showed an Improvement of 1.71 fold, a Kd of 2.06 nM, a koff of 0.00316 s⁻¹ and a kon of 1.53e+06 M⁻¹ s⁻¹. Besides, the variant/wild-type in assay [2] turned out to be 3.6 ratio. In addition, the variant/wild-type in assay [3] amounted to 2.4 ratio. In assay [4], the Improvement was determined as 1.95 fold; the affinity, expressed as Kd, was 1.15 nM; the koff came to 0.00333 s⁻¹; the kon turned out to be 2.91e+06 M⁻¹ s⁻¹.

B5: 2A8 LC_D91L (Fab, V domains shown)
VH: QVQLVESGGGLVQPGGSLRLSCAASGFTFRSYGMSWVRQAPGKGLEWVSSIRGSSSSTYYADSVKGRFTISRDNSKNTLYLQMNSLRAEDTAVYYCARKYRYWFDYWGQGTLVTVSS
VL: DIELTQPPSVSVAPGQTARISCSGDNLRNYYAHWYQQKPGQAPVVVIYYDNNRPSGIPERFSGSNSGNTATLTISGTQAEDEADYYCQSWLDGVPVFGGGTKLTVLG
notes: also called 2A8-16
For the molecule B5, in assay [5], the “IC50, FXa restoring assay” value amounted to 0.37 µg/mL and the “Improvement vs parental” value was 1.7 fold. For the same molecule, the variant/wild-type in assay [2] was 4.2 ratio. The molecule further displayed a variant/wild-type in assay [3] of 1.6 ratio. In assay [4], this molecule returned an Improvement of 2.24 fold, a dissociation constant Kd of 0.999 nM, a koff of 0.0044 s⁻¹ and a kon of 4.41e+06 M⁻¹ s⁻¹.

B6: 2A8 LC_D91K (Fab, V domains shown)
VH: QVQLVESGGGLVQPGGSLRLSCAASGFTFRSYGMSWVRQAPGKGLEWVSSIRGSSSSTYYADSVKGRFTISRDNSKNTLYLQMNSLRAEDTAVYYCARKYRYWFDYWGQGTLVTVSS
VL: DIELTQPPSVSVAPGQTARISCSGDNLRNYYAHWYQQKPGQAPVVVIYYDNNRPSGIPERFSGSNSGNTATLTISGTQAEDEADYYCQSWKDGVPVFGGGTKLTVLG
notes: also called 2A8-15
Take B6: in assay [5], the “IC50, FXa restoring assay” value was found to be 0.34 µg/mL and the “Improvement vs parental” value was 1.9 fold. Moreover, the variant/wild-type in assay [2] was 3.5 ratio. Further, in assay [3], the variant/wild-type turned out to be 1.4 ratio. In assay [4], this molecule registered an Improvement of 4.64 fold, a Kd of 0.482 nM, a koff of 0.00209 s⁻¹ and a kon of 4.33e+06 M⁻¹ s⁻¹.

B7: 2A8 LC_Y48F (Fab, V domains shown)
VH: QVQLVESGGGLVQPGGSLRLSCAASGFTFRSYGMSWVRQAPGKGLEWVSSIRGSSSSTYYADSVKGRFTISRDNSKNTLYLQMNSLRAEDTAVYYCARKYRYWFDYWGQGTLVTVSS
VL: DIELTQPPSVSVAPGQTARISCSGDNLRNYYAHWYQQKPGQAPVVVIFYDNNRPSGIPERFSGSNSGNTATLTISGTQAEDEADYYCQSWDDGVPVFGGGTKLTVLG
notes: also called 2A8-14
As for B7, in assay [5], the “IC50, FXa restoring assay” value stood at 0.34 µg/mL and the “Improvement vs parental” value was 1.9 fold. The molecule further registered a variant/wild-type in assay [2] of 4.6 ratio. This molecule also yielded a variant/wild-type in assay [3] of 3.2 ratio. In assay [4], the Improvement was found to be 1.97 fold, the Kd worked out at 1.14 nM, the koff is 0.003 s⁻¹ and the kon amounted to 2.64e+06 M⁻¹ s⁻¹.

B8: 2A8 HC_K99V (Fab, V domains shown)
VH: QVQLVESGGGLVQPGGSLRLSCAASGFTFRSYGMSWVRQAPGKGLEWVSSIRGSSSSTYYADSVKGRFTISRDNSKNTLYLQMNSLRAEDTAVYYCARVYRYWFDYWGQGTLVTVSS
VL: DIELTQPPSVSVAPGQTARISCSGDNLRNYYAHWYQQKPGQAPVVVIYYDNNRPSGIPERFSGSNSGNTATLTISGTQAEDEADYYCQSWDDGVPVFGGGTKLTVLG
notes: also called 2A8-10
In the case of B8, in assay [5], the “IC50, FXa restoring assay” value was 0.39 µg/mL and the “Improvement vs parental” value was 1.6 fold. Moreover, in assay [2], the variant/wild-type is 7.5 ratio. The molecule further had a variant/wild-type in assay [3] of 3.9 ratio. In assay [4], the Improvement turned out to be 2.25 fold, the Kd was 0.995 nM, the koff is 0.00254 s⁻¹ and the kon is 2.55e+06 M⁻¹ s⁻¹.

B9: 2A8 HC_I51E (Fab, V domains shown)
VH: QVQLVESGGGLVQPGGSLRLSCAASGFTFRSYGMSWVRQAPGKGLEWVSSERGSSSSTYYADSVKGRFTISRDNSKNTLYLQMNSLRAEDTAVYYCARKYRYWFDYWGQGTLVTVSS
VL: DIELTQPPSVSVAPGQTARISCSGDNLRNYYAHWYQQKPGQAPVVVIYYDNNRPSGIPERFSGSNSGNTATLTISGTQAEDEADYYCQSWDDGVPVFGGGTKLTVLG
notes: also called 2A8-6
As for B9, in assay [5], the “IC50, FXa restoring assay” value was found to be 0.76 µg/mL and the “Improvement vs parental” value turned out to be 0.9 fold. Moreover, the variant/wild-type in assay [2] was determined as 7.3 ratio. Besides, the variant/wild-type in assay [3] came to 0.7 ratio. In assay [4], the Improvement stood at 1.78 fold, the Kd is 1.26 nM, the koff came to 0.00162 s⁻¹ and the kon was 1.29e+06 M⁻¹ s⁻¹.

B10: 4B7 wild-type Fab (Fab, V domains shown)
VH: QVQLQQSGPGLVKPSQTLSLTCAISGDSVSSNSAAWSWIRQSPGRGLEWLGIIYKRSKWYNDYAVSVKSRITINPDTSKNQFSLQLNSVTPEDTAVYYCARWHSDKHWGFDYWGQGTLVTVSS
VL: DIVMTQSPLSLPVTPGEPASISCRSSQSLVFSDGNTYLNWYLQKPGQSPQLLIYKGSNRASGVPDRFSGSGSGTDFTLKISRVEAEDVGVYYCQQYDSYPLTFGQGTKVEIKR
notes: Fab with HA (or c-myc) and 6xHis tag at the C-terminus of the heavy chain; also called 4B7wt; parental 4B7
B10: in assay [5], the “IC50, FXa restoring assay” value is 1.46 µg/mL and the “Improvement vs parental” value came to 1 fold. In assay [6], this molecule showed a KD fold improvement of 1 fold, a Kd of 11.1 nM, a koff of 0.0084 s⁻¹ and a kon of 756000 M⁻¹ s⁻¹. In addition, in assay [1], the Improvement was 1 fold, the Kd was found to be 58.6 nM, the off-rate constant (koff) is 0.128 s⁻¹ and the kon came to 2.18e+06 M⁻¹ s⁻¹. In assay [7], this molecule showed a KD fold improvement of 1 fold, a Kd of 54.7 nM, a koff of 0.172 s⁻¹ and a kon of 3.15e+06 M⁻¹ s⁻¹. Further, in assay [4], the Improvement worked out at 1 fold; the affinity, expressed as Kd, was 11.1 nM; the off-rate (koff) turned out to be 0.0084 s⁻¹; the on-rate constant (kon) was 756000 M⁻¹ s⁻¹.
